Patent publication US20250051802

Tested on: SluCas9
Assay: cell_activity
Conditions: amplicon sequencing, HEK 293T

“CCAUUCCCUCUUUAGCCAGAG / CCATTCCCTCTTTAGCCAGAGCGGGGT / ACCCCGCTCTGGCTAAAGAGGGAATGG [pBLR194 guide spacer ; pBLR194 target with PAM]” showed an activity (PAM NNGG (CGGGGT)) of 65.7%.
“GGCCGGCGGCGGACAGUGGAC / GGCCGGCGGCGGACAGTGGACGCGGCGGC / GCCGCCGCGTCCACTGTCCGCCGCCGGCC [pBLR179 guide spacer ; pBLR179 target with PAM]” showed an activity (PAM NNGG (GCGGCGGC)) of 72.8%.
“UGCCCUGUGGGGCAAGGUGAA / TGCCCTGTGGGGCAAGGTGAAGTGGAT / ATCCACTTCACCTTGCCCCACAGGGCA [pBLR197 guide spacer ; pBLR197 target with PAM]” gave an activity (PAM NNGG (GTGGAT)) of 1.9%.
